Experiments:
Assay in all cases: cell-based or functional assay
[1] = biological target: DEN2 E protein of chimeric WN/DEN2 virus, C6-1 seed (Dengue virus type 2, strain 16681 (in a West Nile NY99 backbone)) (UniProt P29990)
[2] = biological target: DEN2 E protein of chimeric WN/DEN2 virus, C6-1/V-2 seed (E-N203D) (Dengue virus type 2, strain 16681 (in a West Nile NY99 backbone)) (UniProt P29990)
[3] = biological target: DEN2 E protein of chimeric WN/DEN2 virus, V-10 seed (E-K122I/K mixed, E-S186F, E-N203D) (Dengue virus type 2, strain 16681 (in a West Nile NY99 backbone)) (UniProt P29990)
[4] = biological target: DEN2 E protein of chimeric WN/DEN2 virus, V-3 seed (E-N203D; NS2A-I49T and NS2A-F94L elsewhere in the virus) (Dengue virus type 2, strain 16681 (in a West Nile NY99 backbone)) (UniProt P29990)
[5] = biological target: E protein of wild type West Nile virus NY99 (West Nile virus, strain NY99) (UniProt Q9Q6P4); conditions: scale: greatest antibody dilution that decreased plaques by at least 50%

Substance | PRNT50 Titer [1] | PRNT50 Titer [2] | PRNT50 Titer [3] | PRNT50 Titer [4] | PRNT50 Titer [5]
DENV-2 E protein-specific monoclonal antibody (MAb3H5) | > 2560 | > 2560 | > 2560 | > 2560 | < 80
WNV E protein-specific monoclonal antibody (MAb3.67G) | < 1280 | < 1280 | < 1280 | < 1280 | > 41000
